Source: publication PMC3848040

Substrate: Nc1ncnc2c1ncn2[C@@H]1O[C@H](COP(=O)(O)OP(=O)(O)OP(=O)(O)O)[C@@H](O)[C@H]1O
Test: purified protein
Details: phosphate donor; activity depends on divalent ions

B1: SGK196dTM (Homo sapiens) (protein)
chain: APRQSTVDPTHCPYGHFRIGQMKNCSPWLSCEELRTEVRQLKRVGEGAVKRVFLSEWKEHKVALSQLTSLEMKDDFLHGLQMLKSLQGTHVVTLLGYCEDDNTMLTEYHPLGSLSNLEETLNLSKYQNVNTWQHRLELAMDYVSIINYLHHSPVGTRVMCDSNDLPKTLSQYLLTSNFSILANDLDALPLVNHSSGMLVKCGHRELHGDFVAPEQLWPYGEDVPFHDDLMPSYDEKIDIWKIPDISSFLLGHIEGSDMVRFHLFDIHKACKSQTPSERPTAQDVLETYQKVLDTLRDAMMSQAREML
For B1, the Km was 4.1 ± 1.4 µM.
